Test results published in publication PMC6279937, “Biochemical Characterization of Aspergillus fumigatus AroH, a Putative Aromatic Amino Acid Aminotransferase” (Frontiers in Molecular Biosciences, 2018).

Legend:
[1] = biological target: Aspergillus fumigatus AroH, recombinant, with a C-terminal 6xHis tag (Aspergillus fumigatus); test: SEC; 5 uM holoAroH on Superdex 200 10/300 GL, 0.1 M potassium phosphate pH 7.4, 0.5 ml/min; elution volume compared with molecular weight standards
[2] = biological target: T1, AroH (Aspergillus fumigatus, UniProt Q4X0F7); test: intrinsic fluorescence quenching of apoenzyme, tight-binding fit; settings: read-out: KD(PLP)
T1 construct: gene AFUA_2G13630; entire AroH cDNA with C-terminal 6xHis tag (kept) in pET22b, synthesized by GenScript, expressed in E. coli BL21(DE3); subunit mass 59480 Da; homodimer with 1 PLP per subunit
T1 sequence (Q4X0F7 1-526): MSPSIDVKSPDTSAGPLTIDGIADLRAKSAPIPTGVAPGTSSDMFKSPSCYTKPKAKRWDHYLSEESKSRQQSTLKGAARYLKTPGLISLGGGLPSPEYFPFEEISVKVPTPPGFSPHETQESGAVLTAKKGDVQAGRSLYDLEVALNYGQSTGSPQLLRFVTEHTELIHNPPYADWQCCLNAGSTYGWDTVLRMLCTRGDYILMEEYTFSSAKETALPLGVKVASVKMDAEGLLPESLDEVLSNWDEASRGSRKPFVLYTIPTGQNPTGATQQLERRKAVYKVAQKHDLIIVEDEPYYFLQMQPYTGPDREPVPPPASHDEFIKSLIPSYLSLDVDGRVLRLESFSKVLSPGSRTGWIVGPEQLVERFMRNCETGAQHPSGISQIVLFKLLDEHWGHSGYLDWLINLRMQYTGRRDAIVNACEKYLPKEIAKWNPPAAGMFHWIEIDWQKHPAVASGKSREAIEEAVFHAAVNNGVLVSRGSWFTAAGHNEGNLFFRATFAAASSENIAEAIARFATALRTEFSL

[3] = substrate: N[C@@H](CCC(=O)O)C(=O)O; test: purified protein; format: biochemical, Aspergillus fumigatus; settings: co-substrate α-ketoadipate, 100 μM PLP, 66 mM potassium phosphate pH 7.4
[4] = substrate: N[C@@H](CCCC(=O)O)C(=O)O; test: purified protein; format: biochemical, Aspergillus fumigatus; settings: co-substrate α-ketoglutarate, 100 μM PLP, 66 mM potassium phosphate pH 7.4
[5] = substrate: N[C@@H](Cc1c[nH]c2ccccc12)C(=O)O; test: purified protein; format: biochemical, Aspergillus fumigatus; settings: co-substrate 1 mM α-ketoglutarate, 100 μM PLP, 66 mM potassium phosphate pH 8.2, 25°C, pH 8.2
[6] = substrate: N[C@@H](Cc1ccc(O)cc1)C(=O)O; test: purified protein; format: biochemical, Aspergillus fumigatus; settings: co-substrate 1 mM α-ketoglutarate, 100 μM PLP, 66 mM potassium phosphate pH 8.2, 25°C, pH 8.2
[7] = substrate: N[C@@H](Cc1ccccc1)C(=O)O; test: purified protein; format: biochemical, Aspergillus fumigatus; settings: co-substrate 1 mM α-ketoglutarate, 100 μM PLP, 66 mM potassium phosphate pH 8.2 (Figure 5 legend says pH 7.4), 25°C
[8] = substrate: Nc1ccccc1C(=O)C[C@H](N)C(=O)O; test: purified protein; format: biochemical, Aspergillus fumigatus; settings: co-substrate α-ketoglutarate, 100 μM PLP, 66 mM potassium phosphate pH 7.4
[9] = substrate: O=C(O)CCC(=O)C(=O)O; test: purified protein; format: biochemical, Aspergillus fumigatus; settings: co-substrate 20 mM L-tryptophan, 100 μM PLP, 66 mM potassium phosphate pH 8.2, 25°C, pH 8.2
[10] = substrate: O=C(O)CCCC(=O)C(=O)O; test: purified protein; format: biochemical, Aspergillus fumigatus; settings: co-substrate L-glutamate, 100 μM PLP, 66 mM potassium phosphate pH 7.4

“Aspergillus fumigatus AroH, recombinant, with a C-terminal 6xHis tag (enzyme)” was tested. Which stoichiometry N [1] did it give?
Its stoichiometry N is 2.

For `Cc1ncc(COP(=O)(O)O)c(C=O)c1O` [PLP], which Kd [2] is on record?
Its Kd is 100 ± 20 nM.

B1: AroH (Aspergillus fumigatus Af293) (protein)
chain: T1 sequence (Q4X0F7 1-526)
notes: entire AroH cDNA with C-terminal 6xHis tag (kept) in pET22b, synthesized by GenScript, expressed in E. coli BL21(DE3); subunit mass 59480 Da; homodimer with 1 PLP per subunit
For B1, which Km [3] is on record?
The Km was 10000 ± 1000 µM.

And the kcat [3]?
The kcat was 10.3 ± 0.3 s⁻¹.

And the kcat/Km [3]?
The kcat/Km was 960 ± 80 M⁻¹ s⁻¹.

And the Km [4]?
Its Km is 3300 ± 400 µM.

And the kcat [4]?
Its kcat is 13.2 ± 0.5 s⁻¹.

And the kcat/Km [4]?
Its kcat/Km is 4000 ± 400 M⁻¹ s⁻¹.

And the Km [5]?
The Km was 2100 ± 300 µM.

What about the kcat [5] of the same molecule?
The kcat was 3 ± 0.1 s⁻¹.

What about the kcat/Km [5] of the same molecule?
Its kcat/Km is 1400 ± 200 M⁻¹ s⁻¹.

What about the Km [6] of the same molecule?
The Km was 500 ± 100 µM.

And the kcat [6]?
The kcat was 4 ± 0.3 s⁻¹.

And the kcat/Km [6]?
The kcat/Km was 8000 ± 2000 M⁻¹ s⁻¹.

And the Km [7]?
The Km was 1400 ± 200 µM.

And the kcat [7]?
The kcat was 7.4 ± 0.2 s⁻¹.

What about the kcat/Km [7] of the same molecule?
The kcat/Km was 5200 ± 600 M⁻¹ s⁻¹.

What about the Km [8] of the same molecule?
Its Km is 9000 ± 2000 µM.

And the kcat [8]?
Its kcat is 4.1 ± 0.4 s⁻¹.

What about the kcat/Km [8] of the same molecule?
Its kcat/Km is 400 ± 100 M⁻¹ s⁻¹.

And the Km [9]?
Its Km is 180 ± 20 µM.

What about the kcat [9] of the same molecule?
Its kcat is 2.5 ± 0.1 s⁻¹.

What about the kcat/Km [9] of the same molecule?
Its kcat/Km is 14000 ± 2000 M⁻¹ s⁻¹.

What about the Km [10] of the same molecule?
The Km was 140 ± 30 µM.

What about the kcat [10] of the same molecule?
The kcat was 12.5 ± 1 s⁻¹.

And the kcat/Km [10]?
Its kcat/Km is 90000 ± 20000 M⁻¹ s⁻¹.
